Assay results published in patent publication US20220112292A1.

Target: CLEC12A/CLL1 (Homo sapiens) (UniProt Q5QGZ9)
Assay: ELISA on plate coated with 1 ug/mL human CLEC12A; sdAb detected with mouse anti-myc mAb and goat anti-mouse IgG-HRP; Abs 450nm

| Binder | EC50 |
| --- | --- |
| VHH clone 1G6 (VHH) VHH: QVQLQQSGGGLVQAGGSLRLSCAASGSIFAINEINLMGWYRQAPGKQRELVAACASDGNTYYADSVKGRFTISRDNAEKTVYLQMNNLKPDDTAVYYCDANSRGNYYSGQGTQVTVSS | 0.48 nM |
| VHH clone 2F5 (VHH) VHH: QVQLQQSGGGLAQTGGSLILSCAASGSIFAINEINLMGWYRQAPGKQRELVAACASDGNTYYADSVKGRFTISRDNAEKTVYLQMNNLKPDDTAVYYCDANSRGNYYSGQGTQVTVSS | 0.65 nM |
| VHH clone 2H3 (VHH) VHH: QVQLQESGGGLVQAGGSLRLSCVASGSIRSINVMGWYRQAPGKQRELVAACASDGNTYYADSVKGRFTISRDNAEKTVYLQMNNLKPDDTAVYYCDANSRGNYYSGQGTQVTVSS | 0.61 nM |
| VHH clone 2F3 (VHH) VHH: QVQLQAFGGGLVQPGGSLRLSCVVSGTMFSGKDVNWLRQAPGKHVEVVATVSSDGGTDYADFVKGRFTISRDDAKNTVNLQMNSLEPEDTANYMCHFLWGRHYWGQGTQVTVSS | 1.5 nM |

More lines, in order of falling EC50, values ahead:

| EC50 | Binder |
| --- | --- |
| 19.5 nM | VHH clone 1B5 (VHH) VHH: QVQLQESGGGLVQAGGSLRLSCVVSGATSNVNAMGWYRQAPGKERELVAAISSGGSTSYRDSVKGRFTISRDNAKNTLYLQMNSLKPEDTAMYYCAAQDWATEGYEYDYWGQGTLVTVSS |
| 0.9 nM | VHH clone 1H1 (VHH) VHH: QVQLQESGGGLVQPGGSLRLSCAASGFTFNSYAMTWVRQAPGKGLEWVSDINSGGGSTNYADSVKGRFTISRDNAKNTLYLQMNSLKPEDTAVYYCATELRGSDYYRGPIREYAYWGQGTLVTVSS |
